From patent US9084745B2, “Modulation of the Vps10p-domain for the treatment of cardiovascular disease” (H. Lundback A/S, priority 2008, dated 2015)

Target: T1, recombinant human sortilin (Homo sapiens, UniProt Q99523)
T1 sequence (Q99523 78-755 limits assumed): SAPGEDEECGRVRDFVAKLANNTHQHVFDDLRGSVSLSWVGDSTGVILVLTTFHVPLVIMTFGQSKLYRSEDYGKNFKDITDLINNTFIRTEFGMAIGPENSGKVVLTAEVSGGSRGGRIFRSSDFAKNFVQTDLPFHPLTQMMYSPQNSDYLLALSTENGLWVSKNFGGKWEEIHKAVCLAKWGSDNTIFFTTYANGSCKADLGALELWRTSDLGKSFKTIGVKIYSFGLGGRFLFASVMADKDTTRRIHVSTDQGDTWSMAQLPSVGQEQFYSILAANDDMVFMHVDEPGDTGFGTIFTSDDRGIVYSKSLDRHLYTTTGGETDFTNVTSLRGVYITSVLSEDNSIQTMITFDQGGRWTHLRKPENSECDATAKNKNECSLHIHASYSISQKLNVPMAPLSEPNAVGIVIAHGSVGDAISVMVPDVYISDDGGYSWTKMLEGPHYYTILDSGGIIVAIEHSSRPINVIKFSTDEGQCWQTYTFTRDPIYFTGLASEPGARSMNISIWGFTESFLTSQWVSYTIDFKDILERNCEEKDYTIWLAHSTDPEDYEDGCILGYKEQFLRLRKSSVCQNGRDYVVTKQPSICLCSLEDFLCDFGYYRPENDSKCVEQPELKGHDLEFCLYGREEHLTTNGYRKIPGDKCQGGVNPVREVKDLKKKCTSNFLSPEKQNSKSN
Test: Surface plasmon resonance analysis of ApoB binding to immobilized sortilin
Details: ApoB 10, 20, 50 nM, on and off rates recorded, displayed experiment
Experimental: FIG. 5b: Characterization of ApoB binding to recombinant human sortilin (30). Sortilin was immobilized on a BIAcore CM5 sensorchip at a density of […]. A) After baseline calibration in running buffer (10 mM Hepes, 150 mM NaCl, 1 mM EGTA, 1.5 mM CaCl2, 0.005% P20, pH 7.4) 10 μg/ml rabbit anti-sortilin IgG (12) or running buffer alone was applied to the chip. At t=700 sec the response units obtained in the presence of anti-sortilin IgG was arbitrarily set at 100 and 50 nM ApoB was applied to the flow cell pre-incubated with antibody or with buffer alone. Association of ApoB binding was measured until 1200 sec, after which the solute was changed to buffer to allow dissociation. […]
Determination of direct binding of ligand to immobilized protein can be performed by e.g. surface plasmon resonance analysis (Biacore, Sweden) using CaHBS as standard running buffer (10 mM HEPES, pH 7.4, 140 mM NaCl, 2 mM CaCl2, 1 mM EGTA, and 0.005% Tween-20). […] In another approach, inhibition of an established ligand can be monitored in the absence or presence of putative inhibitors. […] The data collected are analysed by fitting of sensorgrams for affinity estimations and inhibitory potential using the Biaevaluation version 3.1 program. We evaluated the binding properties of ApoB to sortilin (FIG. 5b). […]

Kd: 0.4 nM
Substance: ApoB: apolipoprotein B, the part of LDL that binds to the LDL receptor; tested as sortilin ligand
